According to article PMC10384427:

Molecular target: SARS-CoV-2 N protein K65R, not SUMOylated (SARS-CoV-2) (UniProt P0DTC9)
Assay: FRET or BRET

## SARS-CoV-2 N protein K65R, not SUMOylated (from UniProt P0DTC9 1-419) (natural protein)
  Kd: 1380 nM
